Assay results from article PMC10433997, “Highly Cross-Reactive and Protective Influenza A Virus H3N2 Hemagglutinin- and Neuraminidase-Specific Human Monoclonal Antibodies” (Microbiology Spectrum, 2023).

How the values were obtained:
[1] = target: T1, hemagglutinin (HA) of A/Switzerland/9715283/2013 H3N2 (Influenza A virus …, strain); experiment: cell-based or functional assay
[2] = target: T2, H3 hemagglutinin protein of A/Brisbane/10/2007 H3N2 (Influenza A virus A/Brisbane/10/2007 …, UniProt A8W8K8, strain); experiment: cell-based or functional assay
[3] = target: recombinant hemagglutinin (HA) of A/Netherlands/219/03 H7N7 (Influenza A virus …, UniProt Q6VMK1, strain); experiment: ELISA; conditions: both partners purified
[4] = target: T1, hemagglutinin (HA) of …; experiment: cell-based or functional assay; remark: listed apart in the source
[5] = target: T2, H3 hemagglutinin protein of …; experiment: cell-based or functional assay; remark: listed apart in the source
[6] = target: T3, hemagglutinin (HA) of A/Hong Kong/1/1968 H3N2 (Influenza A virus A/Hong Kong/1/1968 …, UniProt Q91MA7); experiment: immunostaining of cells or tissue; conditions: one partner purified
T3 construct: source: MDCK cells infected with the virus (BEI Resources)

Binder	hemagglutination inhibition (HAI) IC50, virus A/Switzerland/9715293/2013 H3N2 [1]	hemagglutination inhibition (HAI) IC50, virus A/Brisbane/10/2007 H3N2 [2]	binding result [3]	microneutralization IC50, virus A/Switzerland/9715293/2013 H3N2 [4]	microneutralization IC50, virus A/Brisbane/10/2007 H3N2 [5]	binding result [6]
1092E4 H3-specific human monoclonal antibody (antibody, V domains shown, also called H3 hMAb 1092E4; source: HEK293T, transfected; IgG captured and eluted from Magne protein A beads) VH: QVQLVQSGAEVKKPGASVKVSCKASGYSFTRYGISWVRQAPGQGLEWMGWISAYTGNTDYAQKFQGRITMTTDTSTSTVYMELRSLRSDDTAVYYCARDHPQGVVILGSYYYGMDVWGQGNTVTVSS VL: EIVLTQSPGTLSLSPGERATLSCRASQSVTSRYLAWYQQKLGQAPRLLIYGASSRATGIPDRFSGSGSGTDFTLTISSLEPEDFAVYYCQQSGSPRTFGQGTKVEIK	50 µg/mL	3.13 µg/mL	binds	6.25 µg/mL	0.1 µg/mL	binds
1092C4 H3-specific human monoclonal antibody (antibody, V domains shown, also called H3 hMAb 1092C4; source: HEK293T, transfected; IgG captured and eluted from Magne protein A beads) VH: EVQLVQSGAEVKKPGASVKVSCKASGYSFTRYGISWVRQAPGQGLEWMGWISAYTGNTDYAQKFQGRITMTTDTSTSTAYMELRSLRSDDTAVYYCARDLPQGVVILGSYYYGMDVWGQGNTVTVSS VL: EIVLTQSPGTLSLSPGERATLSCRASQSVTSRYLAWYQQKLGQAPRLLIYGASSRATGIPDRFSGSGSGTDFTLTISSLEPEDLAVYYCQQSGSPRTFGQGTKVEIK	50 µg/mL	< 0.05 µg/mL	binds	0.78 µg/mL	0.1 µg/mL	binds
